According to publication PMC10978878:

Assays:
[1] = target: BA.2.12.1 spike, recombinant trimer that retains the native sequence (SARS-CoV-2) (UniProt P0DTC2); experiment: cryo-EM structure
[2] = target: BA.4 spike, recombinant trimeric S-twin-Strep, prefusion stabilized (SARS-CoV-2) (UniProt P0DTC2); experiment: cryo-EM structure

Row | Substance | stoichiometry N (chains per oligomer) [1] | stoichiometry N (chains per oligomer) [2]
1 | BA.2.12.1 spike, recombinant trimer that retains the native sequence (from UniProt P0DTC2) (natural protein) | 3 | 
2 | BA.4 spike, recombinant trimeric S-twin-Strep, prefusion stabilized (from UniProt P0DTC2 28-1147) (natural protein) |  | 3
